Results on two molecules are retold here after doi:10.1101/2023.09.21.558871, “Protein G-quadruplex interactions and their effects on phase transitions and protein aggregation”.

In the data set the target is T1, Znf706 A2C-AF488 (Homo sapiens, UniProt Q9Y5V0 1-76, A2C).
T1 sequence: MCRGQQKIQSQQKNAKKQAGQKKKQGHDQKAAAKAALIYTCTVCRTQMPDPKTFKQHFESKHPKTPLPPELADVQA
Briefly: fluorescence anisotropy; 20 mM NaPi, 100 mM KCl, 0.05% NaN3, pH 7.4, 25 C (FP/anisotropy); unfolded G4: 20 mM Tris-HCl, 100 mM LiCl, pH 7.4; G4C2 also 20 mM NaPi, 100 mM NaCl, pH 7.4; NMR at 4 C or 37-50 C with 7.5% D2O. Conditions: protein: recombinant; tags: AF488 label on Cys; His6-SUMO cleaved.

As to TTTTTTTTTTTTTTTTTTTT (ssDNA) [polyT], the binding result is listed as “no binding”. As for AAAAAAAAAAAAAAAAAAAA (ssDNA) [polyA], the binding result was “no binding”.
